From the supplement of paper PMC10724198
± gives the standard deviation of the averaged measurements.

The sequences below were run on Saccharomyces cerevisiae (assay: protein stability index of tFT-peptide fusion (C-terminal peptide) (PSI (0-1 scale)); higher = more stable (slower turnover)). Details: genetic background: wild type; temperature: 30 C.
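Also: PSI is a weighted mean of sequencing reads over stability bins, variants kept only with over 10 reads, mCherry proximal and sfGFP distal, peptide attached via GGGS linker.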

First: PPPPRPSPSIYP
Second: PPPPRRPPPAPF
The protein stability index of the first is higher: 0.732 ± 0.018 for the first, 0.6935 ± 0.0022 for the second.

PPPPRSLPLLPP and PPPPSPRLSHSP are within error of each other in protein stability index: 0.67 ± 0.073 for the first, 0.646 ± 0.018 for the second.

PPPPYPPHPPSA and PPPQDPTRRRRP are the same in protein stability index: 0.712 ± 0.027 for the first, 0.7116 ± 0.0054 for the second.

PPPQPPPRHSPP and PPPQSFLPRPPH are within error of each other in protein stability index: 0.676 ± 0.031 for the first, 0.713 ± 0.0062 for the second.

PPPRLPTSPDSP and PPPRLSPTPSSR are within error of each other in protein stability index: 0.722 ± 0.061 for the first, 0.721 ± 0.05 for the second.

PPPRLTVPIPSS and PPPRPDLTVGQP are within error of each other in protein stability index: 0.6477 ± 0.0054 for the first, 0.654 ± 0.04 for the second.

Going from PPPRPLSPPFPF to PPPRPPASLPSL, the protein stability index falls from 0.641 ± 0.05 to 0.5833 ± 0.0033.

PPPRPPPFPLSC and PPPRPPSPPSFL are within error of each other in protein stability index: 0.7134 ± 0.0065 for the first, 0.734 ± 0.041 for the second.

PPPRRAPLSPSV and PPPRSPLLPSPL are within error of each other in protein stability index: 0.669 ± 0.042 for the first, 0.687 ± 0.019 for the second.

First: PPPRSPPAPPPP
Second: PPPRSSLRLPSA
The protein stability index of the first is higher: 0.774 ± 0.052 for the first, 0.652 ± 0.063 for the second.

Going from PPPRTPPDNHPN to PPPSAPLPPSPP, the protein stability index falls from 0.7256 ± 0.0047 to 0.6424 ± 0.0043.

PPPSPNPRENPK and PPPSPPCTPSLI are within error of each other in protein stability index: 0.671 ± 0.0071 for the first, 0.696 ± 0.036 for the second.

PPPSPPPSLSLP and PPPSPSPPPAPG are within error of each other in protein stability index: 0.702 ± 0.025 for the first, 0.6941 ± 0.006 for the second.

PPPSPSSPPLSL and PPPSSAPPPTPP are within error of each other in protein stability index: 0.717 ± 0.099 for the first, 0.607 ± 0.15 for the second.

PPPSSPSPPRCR and PPPTSSPSPSIL are within error of each other in protein stability index: 0.733 ± 0.1 for the first, 0.741 ± 0.07 for the second.

PPPVLPSPRSDP and PPPVPPPAPLLS are within error of each other in protein stability index: 0.667 ± 0.17 for the first, 0.642 ± 0.074 for the second.

PPPVPPSPSPPP and PPPWPLPPGRLP are within error of each other in protein stability index: 0.684 ± 0.013 for the first, 0.703 ± 0.059 for the second.

PPPYHPDATFTT and PPQPRLTPSPPL are within error of each other in protein stability index: 0.7063 ± 0.0025 for the first, 0.697 ± 0.028 for the second.

PPRASQSLLAVP and PPRATPPFPLPP are within error of each other in protein stability index: 0.6555 ± 0.0035 for the first, 0.648 ± 0.031 for the second.

PPRLPPLPSSLL and PPRPAPPPPPAL are within error of each other in protein stability index: 0.721 ± 0.033 for the first, 0.723 ± 0.11 for the second.

PPRPHPPPRPSS and PPRPLRAEGLES are within error of each other in protein stability index: 0.74 ± 0.048 for the first, 0.727 ± 0.028 for the second.

PPRPPPLPPSPP and PPRPPPLSPAPP are within error of each other in protein stability index: 0.685 ± 0.094 for the first, 0.7 ± 0.069 for the second.

PPRPPPPPRSTS and PPRPPSPPPPPS are within error of each other in protein stability index: 0.672 ± 0.024 for the first, 0.779 ± 0.16 for the second.

PPRPSPPPPPRS and PPRRLPALPSPL are within error of each other in protein stability index: 0.735 ± 0.09 for the first, 0.774 ± 0.014 for the second.

First: PPRRSDSQQFSA
Second: PPRSLPPPPFPF
The protein stability index of the first is lower: 0.676 ± 0.029 for the first, 0.749 ± 0.01 for the second.

Compared with PPRSLPPSPPSP, PPRSPPLPPAPT is higher in protein stability index: 0.7384 ± 0.0047 for the first, 0.762 ± 0.013 for the second.

First: PPRSPPLPPGLP
Second: PPRSPPPPRLLL
The protein stability index of the first is lower: 0.558 ± 0.039 for the first, 0.724 ± 0.048 for the second.

PPRSRPLPALPS and PPRYLCLGPGPC are within error of each other in protein stability index: 0.647 ± 0.044 for the first, 0.691 ± 0.03 for the second.

PPSGGYFSTCPP and PPSKRSKKPFRI are within error of each other in protein stability index: 0.731 ± 0.03 for the first, 0.698 ± 0.022 for the second.

PPSLLFPLPLAS and PPSLPPPPPVHP are within error of each other in protein stability index: 0.649 ± 0.11 for the first, 0.648 ± 0.034 for the second.

PPSLPRFTPRPA and PPSLPSVRLSLS are within error of each other in protein stability index: 0.718 ± 0.036 for the first, 0.685 ± 0.027 for the second.

PPSLRPSSSPPI and PPSLSPFSACLS are within error of each other in protein stability index: 0.724 ± 0.022 for the first, 0.669 ± 0.064 for the second.

PPSNPLTRAQCL and PPSPDPPPPDLS are within error of each other in protein stability index: 0.737 ± 0.14 for the first, 0.649 ± 0.017 for the second.

First: PPSPEPGSPHRF
Second: PPSPHLVPYYLP
The protein stability index of the first is higher: 0.734 ± 0.018 for the first, 0.677 ± 0.014 for the second.

PPSPLLVTLPPA and PPSPPFDFSPQN are within error of each other in protein stability index: 0.704 ± 0.022 for the first, 0.716 ± 0.014 for the second.

PPSPPHPIRPPA and PPSPPIPPPPAP are within error of each other in protein stability index: 0.713 ± 0.025 for the first, 0.732 ± 0.053 for the second.

Compared with PPSPPPGTCPPD, PPSPPPPAPPRA is higher in protein stability index: 0.617 ± 0.064 for the first, 0.713 ± 0.023 for the second.

PPSPPPPLSLSP and PPSPPPPPPPPL are within error of each other in protein stability index: 0.6853 ± 0.0033 for the first, 0.7 ± 0.032 for the second.

Compared with PPSPSNPNPLRP, PPSPSSLLFLLS is lower in protein stability index: 0.726 ± 0.019 for the first, 0.7043 ± 0.0028 for the second.

PPSPTPPALPAP and PPSRPLPFLLPH are within error of each other in protein stability index: 0.688 ± 0.018 for the first, 0.696 ± 0.0091 for the second.

PPSSDRPSIILP and PPSSPPSVLPPV are within error of each other in protein stability index: 0.691 ± 0.081 for the first, 0.666 ± 0.021 for the second.

PPSSTAALPPLP and PPSVTLSEMTTG are within error of each other in protein stability index: 0.609 ± 0.066 for the first, 0.642 ± 0.025 for the second.

PPSWASLRLPPT and PPTFPPLLSPPP are within error of each other in protein stability index: 0.708 ± 0.072 for the first, 0.661 ± 0.025 for the second.

PPTIPLRTLPTS and PPTPKHTPHDTT are within error of each other in protein stability index: 0.703 ± 0.018 for the first, 0.694 ± 0.031 for the second.

PPTPLAASPRPS and PPTPPSLPPLSP are within error of each other in protein stability index: 0.722 ± 0.12 for the first, 0.665 ± 0.086 for the second.

Going from PPTPPTSHPSPR to PPTPTPPHPPPP, the protein stability index falls from 0.696 ± 0.027 to 0.611 ± 0.015.

PPVKQKEKGTAT and PPVPPPPRLPRP are within error of each other in protein stability index: 0.701 ± 0.021 for the first, 0.727 ± 0.019 for the second.

Going from PPWPPLVQPVSL to PPYRVVLPLFVP, the protein stability index falls from 0.708 ± 0.066 to 0.508 ± 0.033.

PPYSQPSSTPPH and PQDRGICQIIES are within error of each other in protein stability index: 0.706 ± 0.092 for the first, 0.632 ± 0.017 for the second.

PQDYITTCQHPT and PQFRHFWALSTT are within error of each other in protein stability index: 0.651 ± 0.079 for the first, 0.707 ± 0.015 for the second.

PQPLFLPSPLSR and PQPLYAPFPPPL are within error of each other in protein stability index: 0.702 ± 0.06 for the first, 0.789 ± 0.096 for the second.

PQPPPPPPLSVS and PQPPRPARLCFP are within error of each other in protein stability index: 0.673 ± 0.0087 for the first, 0.705 ± 0.028 for the second.

First: PQRTPPRPNKPP
Second: PQSCNILRGLES
The protein stability index of the first is lower: 0.556 ± 0.013 for the first, 0.708 ± 0.056 for the second.

PRACPSSPASSL and PRALPSPPPPPP are within error of each other in protein stability index: 0.722 ± 0.024 for the first, 0.661 ± 0.13 for the second.

Compared with PRAPHATGYNRR, PRAPPLPPSPSP is lower in protein stability index: 0.7016 ± 0.0069 for the first, 0.668 ± 0.011 for the second.

PRARHSVPNIQS and PRGAVGSRPAGR are within error of each other in protein stability index: 0.694 ± 0.042 for the first, 0.677 ± 0.034 for the second.

PRGTFARSRSTG and PRGYRGNCAYDV are within error of each other in protein stability index: 0.7156 ± 0.0027 for the first, 0.636 ± 0.083 for the second.

Compared with PRHPPTHLIPKT, PRLAPLTLLPPS is higher in protein stability index: 0.615 ± 0.034 for the first, 0.7051 ± 0.0027 for the second.

Compared with PRLPPPPHPSRP, PRNTPPRRAPTR is lower in protein stability index: 0.698 ± 0.031 for the first, 0.6485 ± 0.0031 for the second.

PRPAPGGSPALT and PRPAPLPAPPPS are within error of each other in protein stability index: 0.689 ± 0.083 for the first, 0.679 ± 0.029 for the second.

PRPISLFPLPPP and PRPLPPPPAFLP are within error of each other in protein stability index: 0.693 ± 0.057 for the first, 0.766 ± 0.08 for the second.

PRPPAPRTGPPP and PRPPHPPPSSPR are within error of each other in protein stability index: 0.633 ± 0.011 for the first, 0.69 ± 0.096 for the second.

PRPPPPRIPRPD and PRPPPPSVARVP are within error of each other in protein stability index: 0.7 ± 0.12 for the first, 0.64711 ± 0.0003 for the second.

PRPPRWSSPWPV and PRPPYTPSPPHQ are within error of each other in protein stability index: 0.719 ± 0.058 for the first, 0.774 ± 0.016 for the second.

PRPRSPLSPLAL and PRPRTQPHPGPG are within error of each other in protein stability index: 0.676 ± 0.031 for the first, 0.711 ± 0.0096 for the second.

Compared with PRQLPVRKVSTG, PRRHLALLISEG is lower in protein stability index: 0.7042 ± 0.0022 for the first, 0.6868 ± 0.00082 for the second.

PRRPAPSPLPTP and PRRPATTSIPTT are within error of each other in protein stability index: 0.718 ± 0.2 for the first, 0.672 ± 0.038 for the second.

PRRPLPPSPPRE and PRRRLVLDDRPT are within error of each other in protein stability index: 0.729 ± 0.022 for the first, 0.72823 ± 6.5e-05 for the second.

PRSPPHLRWTRY and PRSPPLTHVSLH are within error of each other in protein stability index: 0.686 ± 0.013 for the first, 0.697 ± 0.043 for the second.

PRSPPPPSPPPY and PRSPPSPTLPHP are within error of each other in protein stability index: 0.583 ± 0.02 for the first, 0.609 ± 0.027 for the second.

PSAASIFLPFPL and PSAGPVVLPTPP are within error of each other in protein stability index: 0.733 ± 0.048 for the first, 0.704 ± 0.013 for the second.

Compared with PSCALAFRSEPH, PSCDCFLLLAPR is lower in protein stability index: 0.741 ± 0.018 for the first, 0.665 ± 0.055 for the second.

PSCPAFPSPPPS and PSDTHTPDQPAK are within error of each other in protein stability index: 0.696 ± 0.014 for the first, 0.694 ± 0.056 for the second.

PSELLPQLPSRW and PSETPSPLTLCS are within error of each other in protein stability index: 0.702 ± 0.019 for the first, 0.722 ± 0.037 for the second.

PSFSPPQVPFPV and PSGFPLRSYLPP are within error of each other in protein stability index: 0.721 ± 0.06 for the first, 0.707 ± 0.049 for the second.

PSGPPPSLFPSA and PSHGSRPSPPLR are within error of each other in protein stability index: 0.661 ± 0.052 for the first, 0.676 ± 0.034 for the second.

Going from PSHPPPPATPCP to PSKTTALTGPDP, the protein stability index rises from 0.7108 ± 0.0065 to 0.737 ± 0.008.

PSLLSSPPPPLL and PSLNNTMLKENK are within error of each other in protein stability index: 0.737 ± 0.073 for the first, 0.62 ± 0.061 for the second.

First: PSLPPDLPPPPA
Second: PSLPPPRRPLSP
The protein stability index of the first is higher: 0.744 ± 0.011 for the first, 0.671 ± 0.017 for the second.

Going from PSLPPSPISPPH to PSLPVPLVPPLS, the protein stability index rises from 0.588 ± 0.013 to 0.633 ± 0.014.
